What all share (experiment): UDP-Glo glucosyl transferase assay, purified enzyme
Common to all, as to format: biochemical, Zea mays

The subject of data set [1] is CN1CC(O)N(c2cc(C(F)(F)F)ccn2)C1=O. To be noted: other: DMSO reagent blank as control, pH 7.5. The procedure:
(§1) Glucosyl transferase activity is assayed via measurement of acceptor substrate-dependent production of UDP from ultrapure UDP-glucose using the Promega UDP-Glo™ method and according to the manufacturer's instructions. Assays are run in 96 well microtiter plates.
(§2) Enzyme, typically at a stock concentration of ˜2 mg/ml is diluted to an appropriate concentration in 50 mM K^+ Hepes buffer at pH7.5 containing 0.5 mg/mL bovine serum albumin (BSA) and 5 ul aliquots of this diluted enzyme added to each well of a Perkin Elmer white ½ area 96 well plate. […] Assays are run for an appropriate time (usually 10 to 60 min) so that the amount of UDP formed lies within the most nearly linear part of the UDP standard curve and are stopped with the addition and mixing of 25 ul UDP-Glo™ detection reagent (prepared as described below). Plates are then incubated at room temperature for 60 minutes and then read in a luminescence plate reader (Perkin Elmer Envision 2130 Multilabel Reader). A UDP standard curve is run alongside each set of assays and reagent blank control assays run with DMSO in place of test herbicide. Typically, 300 pmol of UDP corresponds to a Relative Luminescence Unit (RLU) reading of about 1.5E7 and the response curve between 0 and 600 pmol is fitted to a polynomial function (see for example FIG. 2).
(§3) The UDP-Glo™ reagents are made up and used according to the manufacturer's instructions. Thus, Nucleotide Detection Buffer and ATP are combined to make nucleotide detection reagent (NDR) dispensed into aliquots and frozen to be freshly thawed before use.
(§4) Km and kcat values in respect of UDP-glucose are derived by carrying out experiments to measure initial rates over a suitable range of concentrations of UDP glucose out at a fixed near saturating concentration of acceptor substrate. Best fit values of kcat, Km and kcat/Km are obtained by direct fitting of the data to the Michaelis-Menten equation using Graphpad Prism™ software.
(§5) Variants of C-terminally his tagged SEQ ID No:1 (w/t bx9 from Zea mays), exemplified as SEQ ID 16-30, were cloned, purified and assayed as described in Example 1. FIG. 4 depicts the data from some experiments to determine the kinetic parameters of some of these variants in respect of herbicide VI and table 12 summarizes the estimates of kinetic parameters obtained from further such experiments in respect of a range of herbicides.

Data set [2] concerns Cc1cnc(N2C(=O)N(C)CC2O)cc1C(F)(F)F. To be noted: other: control = inactive H24A mutant of bx9 (asterisk), pH 7.5.
Data set [3] concerns CON1C(=O)N(c2cc(C(F)(F)F)ccn2)C(O)[C@@H]1C. Conditions: other: DMSO reagent blank as control, pH 7.5.
Data set [4] concerns CN1CC(O)N(c2cc(C(F)(F)F)c(Cl)cn2)C1=O. To be noted: other: control = inactive H24A mutant of bx9 (asterisk), pH 7.5.
For data set [5], the system named is CN1CC(O)N(c2cc(C(F)(F)F)ccn2)C1=O. Conditions: other: DMSO reagent blank as control, pH 7.5. The source holds these as a separate data set.
The test system of data set [6] is CON1C(=O)N(c2cc(C(F)(F)F)c(Cl)cn2)C(O)C1C. To be noted: other: control = inactive H24A mutant of bx9 (asterisk), pH 7.5.
Data set [7] relates to CON1C(=O)N(c2cc(C(F)(F)F)ccn2)C(O)[C@@H]1C. Conditions: other: DMSO reagent blank as control, pH 7.5. The procedure:
as §1, §2, §3, §4, §5
The source holds these as a separate data set.

We go through 4 substances from patent US20200270588A1, “GLUCOSYL TRANSFERASE POLYPEPTIDES AND METHODS OF USE” (Syngenta Participations AG, priority 2017, published 2020).

As a reminder, the Km is the substrate concentration at which the rate is half of its maximum. What is called kcat is the number of substrate molecules converted per active site and unit of time at saturation. By kcat/Km is commonly meant the turnover number divided by the Michaelis constant. For the substance “SEQ ID 24, mutant of Zea mays bx9 glucosyl transferase (Zea mays; A334K/L194C/M279F/S117V)”, in data set [1], the Km is 45.5 µM, the turnover number (kcat) was 2.61 s⁻¹ and the kcat/Km was 57500 M⁻¹ s⁻¹.
Regarding “SEQ ID NO 17, zmBX9 S117V, M279F, A334K mutant (Zea mays; A334K/M279F/S117V)”, the Km was found to be 800 µM in data set [2]; 2.2 µM in data set [3]; 10530 µM in data set [4]; 109.7 µM in data set [5]; 190 µM in data set [6]. Further, the kcat in data set [2] turned out to be 0.38 s⁻¹; in data set [3], 2.08 s⁻¹; in data set [4] it was 2.04 s⁻¹; in data set [5] it was 0.852 s⁻¹; in data set [6], 2.08 s⁻¹. Moreover, the specificity constant (kcat/Km) was determined as 480 M⁻¹ s⁻¹ in data set [2]; 938000 M⁻¹ s⁻¹ in data set [3]; 190 M⁻¹ s⁻¹ in data set [4]; 7800 M⁻¹ s⁻¹ in data set [5]; 11200 M⁻¹ s⁻¹ in data set [6].
For “SEQ ID NO 16, zmBX9 S117V, M279F, A334R mutant (Zea mays; A334R/M279F/S117V)”, in data set [7], the Km was 2.8 µM, the kcat came out at 2.45 s⁻¹ and the kcat/Km is 880000 M⁻¹ s⁻¹.
On the same counts, the results for “SEQ ID 25, mutant of Zea mays bx9 glucosyl transferase (Zea mays; A334R/M279F/S117C)” are 8.5 µM, 3.24 s⁻¹ and 380000 M⁻¹ s⁻¹.
